Data published in publication PMC2951370, “Concerted Action of Two Formins in Gliding Motility and Host Cell Invasion by Toxoplasma gondii” (PLoS Pathogens, 2010).

Key:
[1] = molecular target: DD-myc-F1-IR/AA (Toxoplasma gondii); experiment: co-IP; two sequential anti-myc immunoprecipitations (48 hrs Shld-1); IPs and flow throughs blotted, bands quantified with ImageJ and normalised to the input
[2] = molecular target: DD-myc-F2-R/A (Toxoplasma gondii); experiment: as above
[3] = molecular target: the molecule itself; experiment: SEC; purified FH2 domains on Superose 6 10/300 GL, 0.4 ml/min, PBS-NaCl 0.15 M buffer, to determine their oligomeric state

| Molecule | stoichiometry N [3] | also measured |
| --- | --- | --- |
| Toxoplasma gondii Formin 1 (TgFRM1), endogenous (natural protein) | – | percent of the input formin left in the second flow through after two anti-myc IPs (not co-precipitated) [1]: 30% |
| Toxoplasma gondii Formin 2 (TgFRM2), endogenous (natural protein) | – | percent of the input formin left in the second flow through after two anti-myc IPs (not co-precipitated) [2]: 17% |
| His-F1L (FH2 domain of TgFRM1 with an N-terminal 48 amino acid proline-rich extension) (domain or fragment, source: E. coli, purified (Ni-NTA under native conditions)) KKPEAPKKEEAKPKPEAKKEAPKKGPPGGKGGKGPPGKGPPKGKGKGPKKKGEGGLKVGKKDEGKTKRFFWDPIFEDEIPGTIFMKKPNMVLKLQDVEETFAKVVAKKKTESKKPKIIQLLPDSKRAYNMSIALSKFNNYSYQQLREAIIDLDPKILTIEATETLLNFVPTGEENQVVKEYINSGGDLKLVDKPEQFVAAMLGVPLMKQRLEAHAFALNFREAYSDAYTPLENMADACDAIDDSQNLKIVLFAILELGNALNEGDPQRGGAAGFKPTTLAKLQEIRTTTKPVRTMLQYICDIIWEQQPTALNIYEDLKICDKAQRVDMQGIEGRISNLKAGLTKVKNTLEAAKKGNESTGVMGDRDPLRNIMDEFLIEAEPKIKQLDDFLVQVQNQFLQTCHYSGYPDKDVKKIKPDELFKQVAGFARQVDAIRKQKQEIADRELKRKEAEAKRAGKGLKSTAVKKVGMK | 2 | – |
| His-F2 (FH2 domain of TgFRM2) (domain or fragment, Toxoplasma gondii, UniProt D0V3Y1 3317-4043, looked up, also called F2-WT; His-GST-F2; source: E. coli, purified (Ni-NTA under native conditions)) TGSYPGASDKSQQTFSAGAPSSGTNARTESTPAGAGETGASGEAKAPAAPKKKAMPPPPPPGKTPGDASKAPGGPPGKGKAPPLPKGKKAPQLGKAPKAGGPPKKADAVDPMTLPLRRKIHWKTLGKEQIEGTVFKELEGDPAIPDMFDPEAISRLFSATLTVKSDEAAVKAAPKKAEEKKHTILDNKRAQNVAIVLARLPLSLDAIAQKMLHLDTEGLTVDILQKVEQVAPTPEELVKFREYEELKKTENTGDLRDVEKKMTALIPVTRLSSRVRVMQTALQWEKVVEEIEKQLALLCKAADEAHNSRKFRSLLQAVLQWGNYVNHGVKKAPKGQEVSSESEARKAETTSPTEGDRRENRQTLQQLPPILLVKELPTKGFKLASLEKLMEFRTTVDKSICSLHFIISNLIVSLPELDILDLASDMPSLEAAARLSDESIDAPVSYLRNEAAFLLSQIHAIKQVLAAKDATATDPSGAPRPSGSKPQTDEALHAELTRLQKLHGEMVLTLERLRESYLNCKAVIGEVGRFYGEDGPKKPSAGKHKLKGQAVSVDAGGSATAGGVIAEWEFGLLDQSPFELLFSILSTCRQGLRDVQANPRKYAILLVGRFASEEEKWKLLKFHIDNSLANRKRVTGCRGSDAEQVAGRPQDADKAGSSVVSSPRTTPRGSIASRGGKKLIVGRHGPEAGGTPQIPRGPPKSDNGSFTETQRLGRGLSEGSEDALSSP | 2 | – |
